In patent US20100092974A1, “METHODS FOR SCREENING FOR MODULATORS OF CCRL2” (The Board of Trustees of the Leland Stanford Junior …, priority 2008, published 2010) one finds chemerin binding and EC50 data, which are given here for one substance.

In one test the target is T1, mCRTH2 (Mus musculus, UniProt Q9Z2J6).
T1 construct: The coding regions of mCCRL2, huCCRL2, mCRTH2, and huCCR10 were amplified from genomic DNA; expressed in transfected cells
T1 sequence (Q9Z2J6 1-382): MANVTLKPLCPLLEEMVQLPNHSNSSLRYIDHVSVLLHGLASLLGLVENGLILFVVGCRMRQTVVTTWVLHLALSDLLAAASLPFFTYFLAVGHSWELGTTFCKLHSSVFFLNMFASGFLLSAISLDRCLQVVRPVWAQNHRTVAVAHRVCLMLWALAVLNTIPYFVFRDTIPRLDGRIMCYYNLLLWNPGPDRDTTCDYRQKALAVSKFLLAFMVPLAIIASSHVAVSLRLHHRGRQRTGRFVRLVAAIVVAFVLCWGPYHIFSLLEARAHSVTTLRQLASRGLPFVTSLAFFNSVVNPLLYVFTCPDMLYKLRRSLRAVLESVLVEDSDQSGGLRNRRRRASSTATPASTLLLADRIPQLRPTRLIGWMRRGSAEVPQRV
In words: immunofluorescence-based chemerin-binding assay, mCRTH2-HA L1.2. Particulars: 10 nM His8-tagged chemerin, anti-His6 PE.

Another test has as its target T2, mCCRL2 (Mus musculus, UniProt O35457).
T2 construct: The coding regions of mCCRL2, huCCRL2, mCRTH2, and huCCR10 were amplified from genomic DNA; expressed in transfected cells
T2 sequence (O35457 1-360): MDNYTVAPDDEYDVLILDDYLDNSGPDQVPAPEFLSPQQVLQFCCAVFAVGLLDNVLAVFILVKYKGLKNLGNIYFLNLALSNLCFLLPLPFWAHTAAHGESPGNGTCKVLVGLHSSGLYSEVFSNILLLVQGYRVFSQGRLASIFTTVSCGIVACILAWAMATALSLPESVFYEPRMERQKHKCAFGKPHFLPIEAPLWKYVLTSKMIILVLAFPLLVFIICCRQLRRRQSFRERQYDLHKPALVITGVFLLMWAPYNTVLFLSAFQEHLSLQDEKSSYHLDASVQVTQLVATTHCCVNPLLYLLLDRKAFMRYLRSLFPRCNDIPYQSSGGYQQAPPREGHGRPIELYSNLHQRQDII
In words: immunofluorescence-based chemerin-binding assay, mCCRL2-HA L1.2. Particulars: read-out: EC50, untagged chemerin vs His8-tagged chemerin binding; 10 nM His8-tagged serum form chemerin, 30 min on ice, anti-His6 PE.

Usually EC50 stands for the concentration needed to bring the measured effect to its halfway point. As for “chemerin: protein ligand for signaling receptor CMKLR1; serum form human chemerin expressed in baculovirus-infected insect cells, His8-tag removed”, the chemerin binding result with mCRTH2 is listed as “did not bind”. Further, in the test with mCCRL2, the EC50 was 45 nM.
